# Measured values reported in the supplement of paper PMC10126150.
# ± gives the standard deviation of the averaged measurements.
# Tested on: ATP
# Assay: switch fluorescence ratio, 500 uM ATP over buffer (Cy3 cluster intensity, sum of 5 cycles each) (fold (ratio)); higher = stronger signal-on switching upon ATP binding; sequences stand for … in TCGTCGGCAGCGTCAGATGTGTATAAGAGACAGTTTTTTTTTTTTTTTTTTTTTTTTT…TC
# Details: aptamer strand: ATP DNA aptamer (quencher-CACCTGGGGGAGTATTGCGGAGGAAGG + anchor), 100 nM annealed; ATP concentration: 500 uM
# How it was run: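 Five buffer/ATP imaging cycles were run on Cy3-labelled switching-strand clusters on a modified Illumina MiSeq flow-cell, with NaOH stripping and re-annealing between cycles. In each cycle, clusters annealed to 100 nM quencher-labelled ATP aptamer were imaged in selection buffer, then after 15 min with 500 uM ATP at 22 °C. Per cluster, the fluorescence ratio is summed target-cycle over summed buffer-cycle Cy3 intensity, averaged per switch-domain sequence. Only clusters within 100-1000 RFU were kept.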
# 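Also: ATP exposure 15 min at 22 °C before imaging.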
row,Sequence,switch fluorescence ratio
1,CGAGGGTAGA,1.01 ± 0.03
2,AGGAGGTTCC,1.02 ± 0.061
3,GGGTGAAGGT,0.9866 ± 0.0047
4,GCTTTAATTT,1.07 ± 0.045
5,TATATTTAGT,0.973 ± 0.028
6,TATTACGGCG,1.02 ± 0.03
7,CAATAGTAGA,1.01 ± 0.036
8,CGGAGGGATG,1.71 ± 0.66
9,GCCCTTGTTT,1.03 ± 0.046
10,GAGGATTTAG,0.964 ± 0.013
11,ACGGGGTTGC,1.01 ± 0.017
12,TTGGCTTTTT,1.01 ± 0.015
13,ACTATTGCGG,1.01 ± 0.025
14,TGGAGGTCTA,1 ± 0.018
15,TTGATAGACG,1.07 ± 0.042
16,GGTAGTACTG,0.995 ± 0.095
17,CATAATATTA,0.9698 ± 0.0032
18,GCTTAAGAGG,1.03 ± 0.017
19,CTGAGTATAG,1.01 ± 0.023
20,GCGCTGACGT,0.9932 ± 0.0052
21,TAAGGCTTAT,0.988 ± 0.016
22,TAAGAGCAGG,1.1 ± 0.091
23,TCTTGGAACG,0.998 ± 0.015

row,Sequence,switch fluorescence ratio
1,CGTCTGATAG,0.99 ± 0.033
2,GAGGTATGGG,0.9761 ± 0.0077
3,TGTTGCGTTA,0.985 ± 0.021
4,GGACGATTTG,1.05 ± 0.054
5,TTAATGTGCG,1.01 ± 0.023
6,GAGTACAAAA,1.02 ± 0.015
7,GCGAAATGTG,1.03 ± 0.013
8,TCCGAAGGGT,0.991 ± 0.045
9,ATCAAATGTA,0.981 ± 0.024
10,ACTGGTCGCC,0.992 ± 0.015
11,GATATGCTAT,0.9915 ± 0.0066
12,GCTCTGACGG,1.054 ± 0.0086
13,CAGATAGGTT,1.09 ± 0.14
14,TTCCGGGGGA,1.08 ± 0.11
15,CGGCTTTTTA,0.9588 ± 0.0056
16,AAAACAAGGA,1.01 ± 0.041
17,TTACGGTCTA,1.03 ± 0.013
18,AGACGCTTG,0.9961 ± 0.0042
19,CAATTTGTGG,0.968 ± 0.021
20,TTGGGGTGCA,0.99 ± 0.018
21,AAAGAGCAAG,1.11 ± 0.034
22,ACGAGGGAAA,2.12 ± 1.6
23,TTTACGAAGT,0.966 ± 0.013

row,Sequence,switch fluorescence ratio
1,GACTAGTGAA,0.9906 ± 0.0079
2,TATTTAGGTT,1.006 ± 0.006
3,GAATAGGTTA,0.983 ± 0.026
4,TTTGTGGCTA,1.03 ± 0.031
5,GTTCACTACC,1.15 ± 0.0083
6,TGTGGGCGGA,1.001 ± 0.0079
7,TTGGGCACTT,0.997 ± 0.068
8,TTTATTATAT,1.01 ± 0.031
9,ACATTAGGGA,1.04 ± 0.058
10,GGGGTCGCTG,0.965 ± 0.013
11,TTATGAATGC,0.999 ± 0.055
12,CAGAGGAACT,0.999 ± 0.035
13,TTGGGGTACA,0.9895 ± 0.0051
14,TTGAGTGGGA,0.989 ± 0.02
15,GGCTTGGAAA,0.973 ± 0.011
16,GTGGTTTGCT,1.01 ± 0.013
17,ATGTTGGTTT,0.996 ± 0.021
18,CGAGTATTTT,1.024 ± 0.0022
19,TGCTTGGGGC,0.99 ± 0.059
20,ACATTTTGG,1.002 ± 0.0081
21,ATTATTATGC,0.97 ± 0.025
22,GAATGATGGC,0.939 ± 0.065
23,GAGTTATCG,1.01 ± 0.018

row,Sequence,switch fluorescence ratio
1,TATGGTCACC,1.03 ± 0.03
2,CGGACTGTCA,1.02 ± 0.016
3,GGGATATGAA,0.992 ± 0.018
4,GCCGGGGGCG,0.982 ± 0.051
5,TATAGTCGGG,0.98 ± 0.025
6,GAAAGGGGAT,0.99 ± 0.018
7,TAAGACATTT,1.03 ± 0.04
8,GTTGGGGCCT,1.03 ± 0.051
9,GAGTTAAGGA,1.02 ± 0.03
10,GTGGGGGTTG,0.976 ± 0.043
11,ATGGTTGGGT,0.994 ± 0.012
12,TAAAGGAAGT,0.983 ± 0.04
13,TGAGTTCAAC,1.04 ± 0.086
14,CCTTAATTTG,1.007 ± 0.0089
15,GTTGGGAGGC,1.064 ± 0.0014
16,GGTGGGGGT,1.35 ± 0.48
17,TAGCTATGTG,0.982 ± 0.038
18,AAGTGGAGGC,1.04 ± 0.0072
19,AAAAGAGGGG,1 ± 0.031
20,TACTTGAGGG,1.01 ± 0.019
21,TAGGGGAAAG,0.99 ± 0.052
22,ATGTTCTCCG,1.14 ± 0.035
23,CGTGGGGGAG,1.02 ± 0.066

row,Sequence,switch fluorescence ratio
1,TCCTTCGGCG,1.3 ± 0.078
2,ATCTTTGTGT,1.01 ± 0.043
3,AACAACCGGT,0.961 ± 0.031
4,CTATTGAAGT,0.9838 ± 0.0073
5,AATAAATCTA,1.039 ± 0.0016
6,GAGTTGAGGG,0.973 ± 0.023
7,TGTTTTTTAG,1.01 ± 0.024
8,GAGGCATGGA,0.9864 ± 0.0039
9,GGATATGATC,1.03 ± 0.031
10,GATCTTAGGG,0.989 ± 0.028
11,ATTCCCGGTT,1.03 ± 0.022
12,TCATGCAACG,1.06 ± 0.06
13,AACGGTAGGT,1.01 ± 0.018
14,CATAGGGTTC,0.9954 ± 0.0089
15,GATTTCAGCT,0.997 ± 0.019
16,GGGTTATTAG,0.986 ± 0.018
17,ACAGGGGTTG,0.978 ± 0.033
18,TGATGGGGGT,1.04 ± 0.042
19,GTGGGTTCGG,1 ± 0.031
20,TGATTTTGAG,1.01 ± 0.018
21,GTATAAGAGC,0.985 ± 0.033
22,AGGGGTTGGA,1.01 ± 0.036
23,ACGGGGGAAC,1.046 ± 0.0071

row,Sequence,switch fluorescence ratio
1,GGTGGGCGGG,1.01 ± 0.016
2,GAAAACATAG,1.01 ± 0.02
3,TGATGCGTGT,0.999 ± 0.027
4,CTGTCTGTGC,1.09 ± 0.044
5,ATGGTGTACT,1.012 ± 0.0033
6,CGTCGGGGGG,1.008 ± 0.008
7,TCGGGATAGT,1.03 ± 0.039
8,TTATGGCGGT,1.063 ± 0.0057
9,AATATCCGTA,1.01 ± 0.033
10,TGGGGGGGCC,0.968 ± 0.0076
11,CACAACACTC,1.37 ± 0.044
12,GATGTTAGGT,0.996 ± 0.023
13,CCTTTATGGG,0.9952 ± 0.0095
14,AGGCCCTTTA,1.12 ± 0.17
15,GTTGGGTGTG,1.02 ± 0.019
16,CCCATTTGTA,1 ± 0.026
17,TTACGGAACT,1.164 ± 0.0041
18,TTTTTTGTGA,1 ± 0.08
19,TTTAGATGCT,1.03 ± 0.099
20,ATGGCGTCCA,0.977 ± 0.045
21,GACCCGGCTA,1.04 ± 0.018
22,AAGGCCCTGA,0.994 ± 0.012
23,TAACTGGGTT,1.02 ± 0.036

row,Sequence,switch fluorescence ratio
1,CCTTTGGATA,1.13 ± 0.16
2,TAAAAATTCA,1.009 ± 0.0021
3,TTTGCTGCGG,1.03 ± 0.041
4,TTTTGTTTTC,1.11 ± 0.23
5,GATGGCGGGT,1.02 ± 0.07
6,GGCTGGCATT,1.11 ± 0.15
7,GTGGTTTTGG,1 ± 0.035
8,AACAACTCCA,1.015 ± 0.0036
9,CTGACGAAGG,1.05 ± 0.029
10,GATAGGGGTG,1.03 ± 0.03
11,TGGTCAGCTA,1.02 ± 0.025
12,TAATTAGTTT,0.982 ± 0.015
13,GATTATTAGC,0.9999 ± 0.004
14,TTGAGGGTAT,0.998 ± 0.023
15,CCAATGGATA,1.03 ± 0.02
16,GATGTGCGAG,1.01 ± 0.017
17,ATAAAAAAGG,1.01 ± 0.017
18,TGTTTAATTC,1.3 ± 0.39
19,TGATCTTGTT,0.9619 ± 0.0037
